Assay results reported in patent US20200247891A1 (University of California, published 2020).

Molecular target: αvβ8 integrin on β8-transfected SW480 cells and β8-transfected SNB-19 cells (UniProt P26012 43-769; P06756 31-1048)
Assay: cell-based or functional assay

Chain of αvβ8 integrin on β8-transfected SW480 cells and β8-transfected SNB-19 cells (P26012 43-769, chain 1 of 2): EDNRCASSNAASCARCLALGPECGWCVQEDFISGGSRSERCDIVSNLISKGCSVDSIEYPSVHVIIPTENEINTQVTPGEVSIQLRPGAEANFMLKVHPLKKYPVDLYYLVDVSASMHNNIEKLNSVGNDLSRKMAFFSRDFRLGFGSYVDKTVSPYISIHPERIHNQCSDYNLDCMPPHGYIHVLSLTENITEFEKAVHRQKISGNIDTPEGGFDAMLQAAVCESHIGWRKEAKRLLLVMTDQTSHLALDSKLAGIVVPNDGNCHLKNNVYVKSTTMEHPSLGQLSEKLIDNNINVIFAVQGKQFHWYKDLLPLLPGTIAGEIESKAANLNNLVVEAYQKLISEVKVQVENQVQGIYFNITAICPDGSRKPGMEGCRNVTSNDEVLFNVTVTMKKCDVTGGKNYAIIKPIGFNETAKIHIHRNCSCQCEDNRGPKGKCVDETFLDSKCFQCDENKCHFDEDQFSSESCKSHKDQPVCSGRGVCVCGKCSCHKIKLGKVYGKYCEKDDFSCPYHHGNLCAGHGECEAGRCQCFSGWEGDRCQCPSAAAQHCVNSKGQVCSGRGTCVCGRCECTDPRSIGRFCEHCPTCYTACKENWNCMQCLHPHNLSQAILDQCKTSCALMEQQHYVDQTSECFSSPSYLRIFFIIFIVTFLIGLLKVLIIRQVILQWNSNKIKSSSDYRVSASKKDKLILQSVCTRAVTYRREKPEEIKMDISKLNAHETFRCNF
Chain of αvβ8 integrin on β8-transfected SW480 cells and β8-transfected SNB-19 cells (P06756 31-1048, chain 2 of 2): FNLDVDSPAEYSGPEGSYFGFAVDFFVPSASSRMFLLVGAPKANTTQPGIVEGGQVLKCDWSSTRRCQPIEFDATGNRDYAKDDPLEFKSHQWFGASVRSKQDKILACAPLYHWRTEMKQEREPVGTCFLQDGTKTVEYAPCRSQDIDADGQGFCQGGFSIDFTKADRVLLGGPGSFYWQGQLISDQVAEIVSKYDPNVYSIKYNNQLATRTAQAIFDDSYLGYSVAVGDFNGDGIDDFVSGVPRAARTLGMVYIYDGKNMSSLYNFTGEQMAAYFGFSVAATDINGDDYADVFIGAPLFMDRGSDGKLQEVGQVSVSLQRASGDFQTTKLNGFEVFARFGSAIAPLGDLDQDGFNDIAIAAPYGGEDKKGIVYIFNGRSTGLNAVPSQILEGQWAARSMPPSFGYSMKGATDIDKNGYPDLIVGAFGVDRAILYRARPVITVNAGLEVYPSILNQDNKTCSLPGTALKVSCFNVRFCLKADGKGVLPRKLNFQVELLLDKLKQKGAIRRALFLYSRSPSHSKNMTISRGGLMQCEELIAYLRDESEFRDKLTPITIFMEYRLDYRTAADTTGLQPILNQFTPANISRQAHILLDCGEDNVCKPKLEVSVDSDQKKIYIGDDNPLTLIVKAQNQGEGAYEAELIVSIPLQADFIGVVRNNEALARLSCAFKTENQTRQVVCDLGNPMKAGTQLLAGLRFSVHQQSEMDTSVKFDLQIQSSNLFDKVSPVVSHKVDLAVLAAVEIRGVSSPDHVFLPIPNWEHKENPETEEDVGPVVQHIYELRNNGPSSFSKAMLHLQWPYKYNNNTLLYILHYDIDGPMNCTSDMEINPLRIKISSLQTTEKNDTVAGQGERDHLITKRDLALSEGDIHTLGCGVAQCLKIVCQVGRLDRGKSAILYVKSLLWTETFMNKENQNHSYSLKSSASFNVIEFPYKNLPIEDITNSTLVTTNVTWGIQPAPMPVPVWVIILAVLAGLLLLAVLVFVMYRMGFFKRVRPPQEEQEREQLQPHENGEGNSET

B1: ADWA-11 (antibody, V domains shown)
VH: EVQLQQSGAELVRPGAFVKLSCKASGFNIKDYYMNWVLQRPEQGLEWIGWIDPDNGNTIYDPKFQGKASITADTSSNTAYLQLSSLTSEDTAVYYCARRLLMDYWGQGTSVTVSS
VL: DIVMTQAAPSVPVTPGESVSISCRSTKSLLHFNGNTYLFWFLQRPGQSPQRLIYYMSNLASGVPDRFSGRGSGTDFTLRISRVEAEDVGVYYCMQSLEYPFTFGTGTKLEIK
IC50 for inhibiting TGFβ activation: < 5 nM
